Test results taken from patent US20260242478A1 (published 2026).
Where no end group is shown, it is not given here.

Columns and labels:
[1] = biological target: T1, Anti-PSMA Fab (SEQ ID NOs: 19, 20); assay: phage binding ELISA; biotinylated Fab on neutravidin plate, anti-M13 HRP detection
T1 construct: Biotinylated and captured on neutravidin coated plates in the phage ELISA; also called 006 PSMA Fab
Procedure: (§1) Clonal phage were harvested as crude supernatants and screened via standard ELISAs. […] Prior to the addition of clonal phage. wells were incubated with blocking buffer and PSMA antigen or blocking buffer alone. Without washing or aspirating, clonal phage supernatants were then added to the wells and incubated for a short time. Wells were then washed followed by detection of bound phage using a horse radish conjugated anti-M13 antibody.

[2] = biological target: T1, Anti-PSMA Fab (SEQ ID NOs: 19, 20); assay: phage binding ELISA on captured Fab; competitor PSMA antigen pre-incubated in the wells
Procedure: as §1

[3] = biological target: T2, Anti-PSMA Fab (SEQ ID NOs: 19, 20); assay: phage binding ELISA; PSMA Fab on plate pre-incubated with PSMA antigen as competitor, anti-M13 HRP detection;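 also: crude clonal phage supernatants added without washing to wells preincubated with PSMA in blocking buffer, compared with wells receiving blocking buffer only, then bound phage detected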
T2 construct: Biotinylated and captured on neutravidin-coated plates in the phage ELISA; also called 006 PSMA Fab
Procedure: as §1

[4] = biological target: T2, Anti-PSMA Fab (SEQ ID NOs: 19, 20); assay: phage binding ELISA; biotinylated PSMA Fab on neutravidin plate, clonal phage supernatant, anti-M13 HRP detection;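 also: wells were preincubated with blocking buffer either containing PSMA antigen or without it before crude phage supernatant was added, briefly incubated, then washed prior to detection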
Procedure: as §1

PSMA Fab [5] = biological target: T3, PSMA Fab; assay: phage ELISA; biotinylated PSMA Fab on neutravidin plate pre-incubated with PSMA antigen as competitor, anti-M13 HRP detection;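 also: crude clonal phage supernatants tested, compared against control wells pre-incubated with blocking buffer only, without PSMA antigen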
T3 construct: also called Anti-PSMA Fab; 006 PSMA Fab
Procedure: as §1

PSMA Fab [6] = biological target: T3, PSMA Fab; assay: phage ELISA; biotinylated PSMA Fab on neutravidin plate, clonal phage supernatant, anti-M13 HRP detection, blocking buffer alone
Procedure: as §1

PSMA Fab [7] = biological target: T4, PSMA Fab; assay: clonal phage ELISA; biotinylated PSMA Fab on neutravidin plate; wells pre-incubated with PSMA antigen as competitor; anti-M13-HRP detection
T4 construct: also called Anti-PSMA Fab; 006 PSMA Fab
Procedure: as §1

PSMA Fab [8] = biological target: T4, PSMA Fab; assay: clonal phage ELISA; biotinylated PSMA Fab on neutravidin plate; anti-M13-HRP detection; no PSMA antigen
Procedure: as §1

B1: Phage-2198 (peptide)
peptide: DVNWCTPPWMCWGF
notes: Clonal phage of the peptide-180 library, tested as crude phage supernatant; not shown: fused to pIII of the bacteriophage
- Anti-PSMA Fab (SEQ ID NOs: 19, 20) signal [1]: 1.62
- Anti-PSMA Fab signal in the presence of PSMA [2]: 0.0743

B2: Phage-2199 (peptide)
peptide: VEKWCIPSWMCQEL
notes: as for B1
- Anti-PSMA Fab (SEQ ID NOs: 19, 20) signal [1]: 1.62
- Anti-PSMA Fab signal in the presence of PSMA [2]: 0.0642

B3: Phage-2200 (peptide)
peptide: GEIWCIPAWMCNTG
notes: as for B1
- Anti-PSMA Fab (SEQ ID NOs: 19, 20) signal [1]: 1.62
- Anti-PSMA Fab signal in the presence of PSMA [2]: 0.0549

B4: Phage-2201 (peptide)
peptide: EYNWCTPRWMCKGF
notes: as for B1
- Anti-PSMA Fab (SEQ ID NOs: 19, 20) signal [1]: 1.62
- Anti-PSMA Fab signal in the presence of PSMA [2]: 0.0617

B5: Phage-2202 (peptide)
peptide: HDKWCIPEWMCISL
notes: as for B1
- Anti-PSMA Fab (SEQ ID NOs: 19, 20) signal [1]: 1.62
- Anti-PSMA Fab signal in the presence of PSMA [2]: 0.075

B6: Phage-2203 (peptide)
peptide: MERWCIPEWMCERT
notes: as for B1
- Anti-PSMA Fab (SEQ ID NOs: 19, 20) signal [1]: 1.61
- Anti-PSMA Fab signal in the presence of PSMA [2]: 0.072

B7: Phage-2204 (peptide)
peptide: DLKLCKPEWMCNGM
notes: as for B1
- Anti-PSMA Fab (SEQ ID NOs: 19, 20) signal [1]: 1.61
- Anti-PSMA Fab signal in the presence of PSMA [2]: 0.0815

B8: Phage-2205 (peptide)
peptide: VDRLCTPEWMCSGF
notes: as for B1
- Anti-PSMA Fab (SEQ ID NOs: 19, 20) signal [1]: 1.61
- Anti-PSMA Fab signal in the presence of PSMA [2]: 0.0763

Binder: DFKWCIPTWMCEVY [Phage-2238 peptide (SEQ ID NO: 2554)]
- Anti-PSMA Fab signal in the presence of PSMA [3]: 0.0768
- Anti-PSMA Fab (SEQ ID NOs: 19, 20) signal [4]: 1.56

Binder: HPNWCTPPWMCLGL [Phage-2239 peptide (SEQ ID NO: 2555)]
- Anti-PSMA Fab signal in the presence of PSMA [3]: 0.0699
- Anti-PSMA Fab (SEQ ID NOs: 19, 20) signal [4]: 1.56

Binder: VVKWCIPTWMCENS [Phage-2241 peptide (SEQ ID NO: 2557)]
- Anti-PSMA Fab signal in the presence of PSMA [3]: 0.0889
- Anti-PSMA Fab (SEQ ID NOs: 19, 20) signal [4]: 1.56

Binder: LMNWCIPPWMCSAQ [Phage-2242 peptide (SEQ ID NO: 2558)]
- Anti-PSMA Fab signal in the presence of PSMA [3]: 0.0907
- Anti-PSMA Fab (SEQ ID NOs: 19, 20) signal [4]: 1.56

Binder: LMKWCIPQWMCQLD [Phage-2243 peptide (SEQ ID NO: 2559)]
- Anti-PSMA Fab signal in the presence of PSMA [3]: 0.249
- Anti-PSMA Fab (SEQ ID NOs: 19, 20) signal [4]: 1.56

Binder: LVKLCIPEWMCSEG [Phage-2244 peptide (SEQ ID NO: 2560)]
- Anti-PSMA Fab signal in the presence of PSMA [3]: 0.0711
- Anti-PSMA Fab (SEQ ID NOs: 19, 20) signal [4]: 1.56

B9: Phage-2245 peptide (SEQ ID NO: 2561) (peptide)
peptide: SEKLCIPEWMCAQA
modifications: cysteine pairing not given here; also: displayed on bacteriophage as fusion to pIII
- Anti-PSMA Fab signal in the presence of PSMA [3]: 0.0686
- Anti-PSMA Fab (SEQ ID NOs: 19, 20) signal [4]: 1.56

Binder: GEIWCTPKWMCDGF [Phage-2246 peptide (SEQ ID NO: 2562)]
- Anti-PSMA Fab signal in the presence of PSMA [3]: 0.0716
- Anti-PSMA Fab (SEQ ID NOs: 19, 20) signal [4]: 1.55

Binder: NIIRCTPAWMCDGF [Phage-2247 peptide (SEQ ID NO: 2563)]
- Anti-PSMA Fab signal in the presence of PSMA [3]: 0.0619
- Anti-PSMA Fab (SEQ ID NOs: 19, 20) signal [4]: 1.55

Binder: LENWCKPAWMCWGM [Phage-2248 peptide (SEQ ID NO: 2564)]
- Anti-PSMA Fab signal in the presence of PSMA [3]: 0.0811
- Anti-PSMA Fab (SEQ ID NOs: 19, 20) signal [4]: 1.55

Binder: IIKWCTPEWMCVGF [Phage-2249 peptide (SEQ ID NO: 2565)]
- Anti-PSMA Fab signal in the presence of PSMA [3]: 0.0748
- Anti-PSMA Fab (SEQ ID NOs: 19, 20) signal [4]: 1.55

Binder: IDKWCIPAWMCEST [Phage-2250 peptide (SEQ ID NO: 2566)]
- Anti-PSMA Fab signal in the presence of PSMA [3]: 0.105
- Anti-PSMA Fab (SEQ ID NOs: 19, 20) signal [4]: 1.55

B10: Phage-2251 peptide (SEQ ID NO: 2567) (peptide)
peptide: GTNWCTPAWMCAGF
modifications: cysteine pairing not given here; also: displayed on bacteriophage as fusion to pIII
- Anti-PSMA Fab signal in the presence of PSMA [3]: 0.061
- Anti-PSMA Fab (SEQ ID NOs: 19, 20) signal [4]: 1.55

Binder: ADKWCIPEWMCQQD [Phage-2252 peptide (SEQ ID NO: 2568)]
- Anti-PSMA Fab signal in the presence of PSMA [3]: 0.0665
- Anti-PSMA Fab (SEQ ID NOs: 19, 20) signal [4]: 1.55

B11: Phage-2359 (peptide)
peptide: AANWCTPPWMCLGF
notes: Peptide-180 library clone, tested as clonal phage supernatant
- Phage binding ELISA signal, Anti-PSMA Fab in the presence of PSMA antigen (PSMA Fab [5]): 0.0888
- Phage binding ELISA signal, Anti-PSMA Fab (PSMA Fab [6]): 1.42

B12: Phage-2360 (peptide)
peptide: EEKWCRPAWMCEHA
notes: as for B11
- Phage binding ELISA signal, Anti-PSMA Fab in the presence of PSMA antigen (PSMA Fab [5]): 0.0625
- Phage binding ELISA signal, Anti-PSMA Fab (PSMA Fab [6]): 1.42

B13: Phage-2361 (peptide)
peptide: ITPWCIPPWMCPGP
notes: as for B11
- Phage binding ELISA signal, Anti-PSMA Fab in the presence of PSMA antigen (PSMA Fab [5]): 0.0746
- Phage binding ELISA signal, Anti-PSMA Fab (PSMA Fab [6]): 1.42

B14: Phage-2362 (peptide)
peptide: EEKMCKPSWMCQLF
notes: as for B11
- Phage binding ELISA signal, Anti-PSMA Fab in the presence of PSMA antigen (PSMA Fab [5]): 0.09
- Phage binding ELISA signal, Anti-PSMA Fab (PSMA Fab [6]): 1.41

B15: Phage-2363 (peptide)
peptide: AERWCIPDWMCNVI
notes: as for B11
- Phage binding ELISA signal, Anti-PSMA Fab in the presence of PSMA antigen (PSMA Fab [5]): 0.0567
- Phage binding ELISA signal, Anti-PSMA Fab (PSMA Fab [6]): 1.41

B16: Phage-2364 (peptide)
peptide: GANLCIPPWMCLSS
notes: as for B11
- Phage binding ELISA signal, Anti-PSMA Fab in the presence of PSMA antigen (PSMA Fab [5]): 0.0789
- Phage binding ELISA signal, Anti-PSMA Fab (PSMA Fab [6]): 1.41

B17: Phage-2365 (peptide)
peptide: AEKLCKPAWMCNNM
notes: as for B11
- Phage binding ELISA signal, Anti-PSMA Fab in the presence of PSMA antigen (PSMA Fab [5]): 0.0752
- Phage binding ELISA signal, Anti-PSMA Fab (PSMA Fab [6]): 1.41

B18: Phage-2366 (peptide)
peptide: INKWCIPEWMCAAM
notes: as for B11
- Phage binding ELISA signal, Anti-PSMA Fab in the presence of PSMA antigen (PSMA Fab [5]): 0.0668
- Phage binding ELISA signal, Anti-PSMA Fab (PSMA Fab [6]): 1.41

B19: Phage-2367 (peptide)
peptide: YEKWCIPAWMCHVA
notes: as for B11
- Phage binding ELISA signal, Anti-PSMA Fab in the presence of PSMA antigen (PSMA Fab [5]): 0.0747
- Phage binding ELISA signal, Anti-PSMA Fab (PSMA Fab [6]): 1.41

B20: Phage-2368 (peptide)
peptide: DGVWCVPQWMCDGY
notes: as for B11
- Phage binding ELISA signal, Anti-PSMA Fab in the presence of PSMA antigen (PSMA Fab [5]): 0.0722
- Phage binding ELISA signal, Anti-PSMA Fab (PSMA Fab [6]): 1.4

B21: Phage-2369 (peptide)
peptide: GLGWCTPTWMCEGF
notes: as for B11
- Phage binding ELISA signal, Anti-PSMA Fab in the presence of PSMA antigen (PSMA Fab [5]): 0.0727
- Phage binding ELISA signal, Anti-PSMA Fab (PSMA Fab [6]): 1.4

B22: Phage-2370 (peptide)
peptide: LEKWCIPSWMCSTL
notes: as for B11
- Phage binding ELISA signal, Anti-PSMA Fab in the presence of PSMA antigen (PSMA Fab [5]): 0.0829
- Phage binding ELISA signal, Anti-PSMA Fab (PSMA Fab [6]): 1.4

B23: Phage-2371 (peptide)
peptide: VDKWCIPSWMCEFY
notes: as for B11
- Phage binding ELISA signal, Anti-PSMA Fab in the presence of PSMA antigen (PSMA Fab [5]): 0.0767
- Phage binding ELISA signal, Anti-PSMA Fab (PSMA Fab [6]): 1.4

B24: Phage-2372 (peptide)
peptide: QVQWCIPPWMCLED
notes: as for B11
- Phage binding ELISA signal, Anti-PSMA Fab in the presence of PSMA antigen (PSMA Fab [5]): 0.0887
- Phage binding ELISA signal, Anti-PSMA Fab (PSMA Fab [6]): 1.4

Binder: WDHLCKPRWMCDGI (cysteine pairing not given here; also: displayed as fusion to phage pIII) [Phage-2451]
- Phage binding ELISA signal, Anti-PSMA Fab with PSMA antigen (PSMA Fab [7]): 0.0744
- Phage binding ELISA signal, Anti-PSMA Fab (PSMA Fab [8]): 1.28

Binder: SVKMCIPEWMCENI [Phage-2452]
- Phage binding ELISA signal, Anti-PSMA Fab with PSMA antigen (PSMA Fab [7]): 0.0646
- Phage binding ELISA signal, Anti-PSMA Fab (PSMA Fab [8]): 1.28

Binder: VETWCIPHWMCAGF (cysteine pairing not given here; also: displayed as fusion to phage pIII) [Phage-2453]
- Phage binding ELISA signal, Anti-PSMA Fab with PSMA antigen (PSMA Fab [7]): 0.0685
- Phage binding ELISA signal, Anti-PSMA Fab (PSMA Fab [8]): 1.27

Binder: SVHECRPLWMCQGF [Phage-2455]
- Phage binding ELISA signal, Anti-PSMA Fab with PSMA antigen (PSMA Fab [7]): 0.073
- Phage binding ELISA signal, Anti-PSMA Fab (PSMA Fab [8]): 1.27

Binder: GEKWCIPSWMCVAV [Phage-2456]
- Phage binding ELISA signal, Anti-PSMA Fab with PSMA antigen (PSMA Fab [7]): 0.0549
- Phage binding ELISA signal, Anti-PSMA Fab (PSMA Fab [8]): 1.27

Binder: VEILCKPAWMCRLD [Phage-2457]
- Phage binding ELISA signal, Anti-PSMA Fab with PSMA antigen (PSMA Fab [7]): 0.062
- Phage binding ELISA signal, Anti-PSMA Fab (PSMA Fab [8]): 1.27

Binder: DTNWCRPAWMCAFA (cysteine pairing not given here; also: displayed as fusion to phage pIII) [Phage-2458]
- Phage binding ELISA signal, Anti-PSMA Fab with PSMA antigen (PSMA Fab [7]): 0.0649
- Phage binding ELISA signal, Anti-PSMA Fab (PSMA Fab [8]): 1.27
